Measurements reported in article PMC13132546, “The FAM53C/DYRK1A axis regulates the G1/S transition of the cell cycle” (eLife, 2026).

Target: T1, DYRK1A (recombinant, N-terminally biotinylated) (UniProt Q13627 1-763, biotin on the N-terminus (sortase labelling with a synthetic biotin-LPETGG peptide onto the N-terminal glycine left after TEV cleavage))
T1 construct: DYRK1A; also called Dual-specificity Tyrosine Phosphorylation-regulated Kinase 1 A; biotinylated DYRK1A; not shown: GST, N-terminal, cleaved; biotin-LPETGG peptide (sortase-ligated), N-terminal, kept
Assay: BLI; Octet-RED96e; 200 nM biotinylated DYRK1A loaded on streptavidin biosensor tips, dipped into FAM53C analyte at varied concentrations; 25 mM Tris pH 8.0, 150 mM NaCl, 1 mM DTT, 2 mg/mL BSA, 0.2% Tween; double reference-subtracted; rates from a 1:1 model, KD from steady-state analysis
Conditions: both partners purified

B1: FAM53C (recombinant) (natural protein, UniProt Q9NYF3 1-392, looked up)
chain: MITLITEQLQKQTLDELKCTRFSISLPLPDHADISNCGNSFQLVSEGASWRGLPHCSCAEFQDSLNFSYHPSGLSLHLRPPSRGNSPKEQPFSQVLRPEPPDPEKLPVPPAPPSKRHCRSLSVPVDLSRWQPVWRPAPSKLWTPIKHRGSGGGGGPQVPHQSPPKRVSSLRFLQAPSASSQCAPAHRPYSPPFFSLALAQDSSRPCAASPQSGSWESDAESLSPCPPQRRFSLSPSLGPQASRFLPSARSSPASSPELPWRPRGLRNLPRSRSQPCDLDARKTGVKRRHEEDPRRLRPSLDFDKMNQKPYSGGLCLQETAREGSSISPPWFMACSPPPLSASCSPTGGSSQVLSESEEEEEGAVRWGRQALSKRTLCQRDFGDLDLNLIEEN
notes: FAM53C; also called C5ORF6; source: E. coli BL21 (DE3), purified (Ni-NTA, TEV cleavage, Q Sepharose, Superdex 75)
Kd: 3.3 ± 0.5 mM
